Assay results: publication PMC6978801, “Structural Basis of Teneurin-Latrophilin Interaction in Repulsive Guidance of Migrating Neurons” (Cell, 2020)
Values belong to the molecule of their own block, whether it stands above or below them.

Assays:
Ten2 on K-562 cells = Ten2 on K-562 cells (UniProt Q9DER5); assay: K-562 cell aggregation assay; conditions: n = 3; parent: est. 56; read off a plot
FLRT2 on K-562 cells = FLRT2 on K-562 cells (UniProt Q8BLU0); assay: K-562 cell aggregation assay; conditions: n = 3; parent: est. 47; read off a plot
Chain of FLRT2 on K-562 cells (Q8BLU0 36-660): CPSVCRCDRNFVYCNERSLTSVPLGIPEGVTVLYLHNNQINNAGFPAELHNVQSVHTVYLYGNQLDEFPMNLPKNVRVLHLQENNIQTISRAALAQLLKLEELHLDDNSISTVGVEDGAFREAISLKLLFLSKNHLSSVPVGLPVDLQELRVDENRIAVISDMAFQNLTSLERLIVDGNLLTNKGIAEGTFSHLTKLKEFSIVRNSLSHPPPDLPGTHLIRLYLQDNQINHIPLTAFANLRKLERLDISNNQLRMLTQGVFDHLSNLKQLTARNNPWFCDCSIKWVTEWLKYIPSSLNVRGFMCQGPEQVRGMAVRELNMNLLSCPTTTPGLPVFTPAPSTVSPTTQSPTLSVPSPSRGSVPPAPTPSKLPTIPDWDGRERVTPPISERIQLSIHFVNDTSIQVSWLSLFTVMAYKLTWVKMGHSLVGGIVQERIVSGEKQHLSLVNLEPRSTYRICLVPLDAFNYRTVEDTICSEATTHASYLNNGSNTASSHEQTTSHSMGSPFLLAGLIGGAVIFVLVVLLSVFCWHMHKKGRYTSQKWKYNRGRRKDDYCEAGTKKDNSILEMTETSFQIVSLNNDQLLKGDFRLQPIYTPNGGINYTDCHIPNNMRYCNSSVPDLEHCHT

Lphn1 on K-562 cells = Lphn1 on K-562 cells (UniProt Q80TR1); assay: K-562 cell aggregation assay; conditions: n = 3; parent: est. 56; read off a plot
murine Lphn2 (ecto) = murine Lphn2 (ecto) (UniProt Q8JZZ7); assay: cell-based binding assay (immunofluorescence, HEK293 cells); conditions: n = 12; surface chicken Ten2LT, soluble His-tagged murine Lphn2 (ecto); read off a plot
murine Lphn1 (ecto) = assay: as above; conditions: n = 12; surface chicken Ten2LT, soluble His-tagged murine Lphn1 (ecto); read off a plot
[1] = target: murine Latrophilin 1 ectodomain (mLphn1 ecto) (mouse) (UniProt Q80TR1); assay: SPR; Biacore T200, equilibrium binding at 25 °C, PBS + 0.005% polysorbate 20 pH 7.5; Latrophilin constructs biotinylated at a C-terminal Avi-tag and coupled to a streptavidin-coated CM5 chip (670-730 RU ecto, 220 RU Lec-Olf); Ten2 ectodomains injected; apparent KD from a 1:1 Langmuir fit, analyte concentration calculated as monomer; Teneurin is dimeric, values indicative only
[2] = target: murine Latrophilin 3 ectodomain (mLphn3 ecto) (mouse) (UniProt Q80TS3); assay: as above
Chain of murine Latrophilin 3 ectodomain (mLphn3 ecto) (mouse) (Q80TS3 20-1537): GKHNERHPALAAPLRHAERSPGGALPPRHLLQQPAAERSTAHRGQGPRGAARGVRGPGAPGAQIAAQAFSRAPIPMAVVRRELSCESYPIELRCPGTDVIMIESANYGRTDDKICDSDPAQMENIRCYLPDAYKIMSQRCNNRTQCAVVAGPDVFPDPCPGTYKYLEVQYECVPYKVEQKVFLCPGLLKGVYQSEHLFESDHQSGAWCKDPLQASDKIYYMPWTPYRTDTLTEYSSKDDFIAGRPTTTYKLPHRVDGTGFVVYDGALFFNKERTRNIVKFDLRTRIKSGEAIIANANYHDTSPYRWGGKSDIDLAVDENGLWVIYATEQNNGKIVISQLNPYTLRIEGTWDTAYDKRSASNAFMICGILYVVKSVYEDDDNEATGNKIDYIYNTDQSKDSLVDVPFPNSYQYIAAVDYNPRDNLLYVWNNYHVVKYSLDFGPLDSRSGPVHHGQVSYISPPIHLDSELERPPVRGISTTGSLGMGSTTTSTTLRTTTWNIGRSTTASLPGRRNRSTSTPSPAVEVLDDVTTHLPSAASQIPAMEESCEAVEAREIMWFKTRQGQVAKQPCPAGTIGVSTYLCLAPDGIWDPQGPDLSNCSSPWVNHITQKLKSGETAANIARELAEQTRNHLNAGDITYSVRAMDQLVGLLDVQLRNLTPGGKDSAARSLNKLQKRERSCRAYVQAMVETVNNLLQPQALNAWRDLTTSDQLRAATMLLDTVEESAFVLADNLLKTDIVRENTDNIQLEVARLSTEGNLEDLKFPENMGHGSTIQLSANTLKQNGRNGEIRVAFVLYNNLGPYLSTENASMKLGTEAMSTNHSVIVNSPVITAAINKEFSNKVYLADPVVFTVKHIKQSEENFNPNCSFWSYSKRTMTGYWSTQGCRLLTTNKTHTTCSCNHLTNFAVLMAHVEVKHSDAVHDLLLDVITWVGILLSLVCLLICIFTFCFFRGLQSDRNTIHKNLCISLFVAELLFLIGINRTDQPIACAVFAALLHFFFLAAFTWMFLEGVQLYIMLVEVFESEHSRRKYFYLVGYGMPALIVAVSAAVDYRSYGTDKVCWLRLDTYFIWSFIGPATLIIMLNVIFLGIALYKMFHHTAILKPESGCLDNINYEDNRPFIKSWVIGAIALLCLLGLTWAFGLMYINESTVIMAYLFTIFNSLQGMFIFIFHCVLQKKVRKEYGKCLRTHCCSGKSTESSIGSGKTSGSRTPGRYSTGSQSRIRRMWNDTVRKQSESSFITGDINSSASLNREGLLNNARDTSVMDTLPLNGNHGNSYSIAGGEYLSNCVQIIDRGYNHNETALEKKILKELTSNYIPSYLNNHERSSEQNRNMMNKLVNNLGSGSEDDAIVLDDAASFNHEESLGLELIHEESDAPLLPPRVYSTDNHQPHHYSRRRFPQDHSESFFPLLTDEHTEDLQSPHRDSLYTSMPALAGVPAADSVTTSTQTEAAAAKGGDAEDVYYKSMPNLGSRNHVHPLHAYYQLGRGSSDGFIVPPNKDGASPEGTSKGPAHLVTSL

[3] = target: murine Latrophilin 2 ectodomain (mLphn2 ecto) (mouse) (UniProt Q8JZZ7); assay: as above
Chain of murine Latrophilin 2 ectodomain (mLphn2 ecto) (mouse) (Q8JZZ7 26-1487): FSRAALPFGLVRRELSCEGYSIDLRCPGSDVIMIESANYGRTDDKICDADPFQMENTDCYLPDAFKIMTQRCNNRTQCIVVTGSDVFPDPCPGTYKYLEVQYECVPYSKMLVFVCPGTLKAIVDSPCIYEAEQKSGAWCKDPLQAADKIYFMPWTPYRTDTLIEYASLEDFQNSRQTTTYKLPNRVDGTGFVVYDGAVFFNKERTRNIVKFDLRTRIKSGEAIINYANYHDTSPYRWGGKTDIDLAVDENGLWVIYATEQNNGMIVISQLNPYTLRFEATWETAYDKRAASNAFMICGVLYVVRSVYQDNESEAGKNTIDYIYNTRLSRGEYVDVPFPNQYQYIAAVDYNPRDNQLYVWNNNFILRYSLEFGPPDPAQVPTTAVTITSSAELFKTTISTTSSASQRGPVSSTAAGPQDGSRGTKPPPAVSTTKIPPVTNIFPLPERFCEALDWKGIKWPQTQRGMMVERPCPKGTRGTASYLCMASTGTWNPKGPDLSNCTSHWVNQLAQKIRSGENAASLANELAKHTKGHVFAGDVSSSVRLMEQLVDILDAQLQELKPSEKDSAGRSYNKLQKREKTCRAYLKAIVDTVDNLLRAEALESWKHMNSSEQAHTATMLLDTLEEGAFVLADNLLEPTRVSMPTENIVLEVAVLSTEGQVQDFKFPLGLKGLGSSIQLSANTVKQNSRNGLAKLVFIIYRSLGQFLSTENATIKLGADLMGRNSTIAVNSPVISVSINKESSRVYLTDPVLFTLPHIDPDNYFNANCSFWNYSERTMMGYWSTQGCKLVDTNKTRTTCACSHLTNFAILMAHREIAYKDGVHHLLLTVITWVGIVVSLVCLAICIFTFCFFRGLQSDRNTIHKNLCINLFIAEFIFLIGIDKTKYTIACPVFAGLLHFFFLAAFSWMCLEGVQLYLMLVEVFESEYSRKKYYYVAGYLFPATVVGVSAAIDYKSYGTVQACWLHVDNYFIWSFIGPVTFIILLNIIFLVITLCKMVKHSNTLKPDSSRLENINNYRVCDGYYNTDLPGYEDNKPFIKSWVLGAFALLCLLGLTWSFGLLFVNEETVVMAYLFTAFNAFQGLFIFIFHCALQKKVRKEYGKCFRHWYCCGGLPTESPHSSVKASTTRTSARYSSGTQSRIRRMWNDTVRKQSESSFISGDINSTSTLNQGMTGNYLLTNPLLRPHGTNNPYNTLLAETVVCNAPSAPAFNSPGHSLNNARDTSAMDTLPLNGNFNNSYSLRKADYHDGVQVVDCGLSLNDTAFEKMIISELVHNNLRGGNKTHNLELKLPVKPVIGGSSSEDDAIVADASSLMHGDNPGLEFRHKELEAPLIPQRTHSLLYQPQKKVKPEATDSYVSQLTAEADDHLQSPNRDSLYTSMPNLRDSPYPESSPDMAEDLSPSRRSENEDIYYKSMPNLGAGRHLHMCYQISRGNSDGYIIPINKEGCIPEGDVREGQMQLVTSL

[4] = target: chicken Ten2 ectodomain, soluble (UniProt Q9DER5); assay: cell-based binding assay (immunofluorescence, HEK293 cells); conditions: n = 12, parent: est. 58, read off a plot
[5] = target: mouse Teneurin 2 protein, soluble (UniProt Q9WTS5); assay: as above; conditions: n = 12; surface murine Lphn1TL, soluble His-tagged murine Ten2 (ecto); parent: est. 27; read off a plot
[6] = target: T1, murine Teneurin 2 ectodomain (mTen2 ecto) (mouse, UniProt Q9WTS5 401-2764); assay: SPR; Biacore T200, equilibrium binding at 25 °C, PBS + 0.005% polysorbate 20 pH 7.5; Latrophilin constructs biotinylated at a C-terminal Avi-tag and coupled to a streptavidin-coated CM5 chip (670-730 RU ecto, 220 RU Lec-Olf); Ten2 ectodomains injected; apparent KD from a 1:1 Langmuir fit, analyte concentration calculated as monomer; Teneurin is dimeric, values indicative only; conditions: both partners purified
T1 construct: Teneurin-2 (Ten2), mouse, soluble ectodomain ('ecto'); analyte concentration was calculated as monomer; also called mouse Ten2 (ecto); mouse Teneurin 2 protein; source: HEK293 cells, purified (HisTrap, Superdex200 size exclusion)

[7] = target: T2, chicken Teneurin 2 ectodomain (gTen2 ecto) (chicken, UniProt Q9DER5 429-2802); assay: as above; conditions: both partners purified
T2 construct: Teneurin-2 (Ten2), chicken (Gallus gallus), soluble ectodomain ('ecto'); analyte concentration was calculated as monomer; also called chicken Ten2 (ecto); source: HEK293 cells, purified (HisTrap, Superdex200 size exclusion)

other: aggregation (%) (Ten2 on K-562 cells): 5%
other: aggregation (%) (FLRT2 on K-562 cells): 68%
Molecule: Lphn1 on K-562 cells (from UniProt Q80TR1) E39N

other: aggregation (%) (Lphn1 on K-562 cells): 5%
Molecule: Ten2 on K-562 cells (from UniProt Q9DER5) 1892N; K1894T

response (murine Lphn2 (ecto)): 2%
response (murine Lphn1 (ecto)): 0%
Molecule: chicken Ten2, transmembrane construct at the surface of HEK293 cells (from UniProt Q9DER5) 1892N; K1894T

Kd [1]: 40 nM
Kd [2]: 680 nM
Kd [3]: 60 nM
Molecule: chicken Teneurin 2 ectodomain (gTen2 ecto) (from UniProt Q9DER5 429-2802) (domain or fragment)

response ([4]; surface murine Lphn1TL, soluble His-tagged chicken Ten2 (ecto)): 0%
response [5]: 0%
Molecule: murine Lphn1 (mVenus-tagged, surface of HEK293 cells) E39N

response ([4]; surface murine Lphn1TL2, soluble His-tagged chicken Ten2 (ecto)): 1.5%
Molecule: murine Lphn1 (mVenus-tagged, surface of HEK293 cells) L39A; P51G; D54A; D67A; D72A

Kd [1]: 35 nM
Kd [2]: 490 nM
Kd [3]: 100 nM
Molecule: murine Teneurin 2 ectodomain (mTen2 ecto) (from UniProt Q9WTS5 401-2764) (domain or fragment)

Kd [6]: 290 nM
Kd [7]: 590 nM
B1: murine Latrophilin 1 Lec-Olf domains (mLphn1 Lec-Olf) (domain or fragment, mouse, UniProt Q80TR1 29-395, looked up)
chain: GLPFGLMRRELACEGYPIELRCPGSDVIMVENANYGRTDDKICDADPFQMENVQCYLPDAFKIMSQRCNNRTQCVVVAGSDAFPDPCPGTYKYLEVQYDCVPYIFVCPGTLQKVLEPTSTHESEHQSGAWCKDPLQAGDRIYVMPWIPYRTDTLTEYASWEDYVAARHTTTYRLPNRVDGTGFVVYDGAVFYNKERTRNIVKYDLRTRIKSGETVINTANYHDTSPYRWGGKTDIDLAVDENGLWVIYATEGNNGRLVVSQLNPYTLRFEGTWETGYDKRSASNAFMVCGVLYVLRSVYVDDDSEAAGNRVDYAFNTNANREEPVSLAFPNPYQFVSSVDYNPRDNQLYVWNNYFVVRYSLEFGPPD
modifications: biotinylated enzymatically at the C-terminal Avi-tag
notes: The limits 29-395 are printed for the Lec-Olf construct that was crystallised; source: HEK293 cells; biotinylated enzymatically; not shown: Avi-tag, C-terminal, kept
